Laboratory results from US20260167720A1 (Amgen, published 2026).

Legend:
Test in all cases: cell-based or functional assay
[1] = molecular target: T1, CDH3 (Cadherin-3, P-Cadherin) on HCT116 or GSU cells (UniProt P22223 108-829, limits assumed)
[2] = molecular target: T2, MSLN (Mesothelin) on HCT116 or GSU cells (UniProt Q13421 37-598, limits assumed)
[3] = molecular target: T1, CDH3 (Cadherin-3, P-Cadherin) on HCT116 …; remark: listed apart in the source
[4] = molecular target: T2, MSLN (Mesothelin) on HCT116 or GSU cells; remark: listed apart in the source

B1: MSLN-CDH3 T-cell engager molecule 1 (scFc single chain) (bispecific antibody)
chain: QVQLVQSGAEVKKPGASVKVSCKASGYTFTNYWMNWVRQAPGQCLEWMGNIAYGVAGTNYNQKFQGRVTMTVDTSSSTAYMELSRLRSDDTAVYYCATRYFYVMDYWGQGTLVTVSSGGGGQGGGGQGGGGQEIQMTQSPSSLSASVGDRVTITCRASQDISNYLNWYQQKPGKVPKLLIYYTSRLHSGVPSRFSGSGSGTDFTLTISSLQPEDVATYYCVQYAQFPLTFGCGTKVEIKSGGGGQEVQLVESGGGLVQPGGSLKLSCAASGFTFNKYAMNWVRQAPGKGMEWVARIRSKYNNYATYYADAVKDRFTISRDDSKNTLYLQMNNLKTEDTAVYYCVRAGNFGSSYISYFAYWGQGTLVTVSSGGGGQGGGGQGGGGQQTVVTQEPSLTVSPGGTVTITCGSSTGAVTSGNYPNWIQKKPGQAPRGLIGGTKFLAPGTPARFSGSLEGGKAALTLSGVQPEDEAEYYCVLYYSNRWVFGSGTKLTVLGGGGCPPCPAPELLGGPSVFLFPPKPKDTLMISRTPEVTCVVVDVSHEEPEVKFNWYVDGVEVHNAKTKPCEEQYGSTYRCVSVLTVLHQDWLNGKEYKCKVSNKALPAPIEKTISKAKGQPREPQVYTLPPSREEMTKNQVSLTCLVKGFYPSDIAVEWESNGQPENNYKTTPPVLDSDGSFFLYSKLTVDKSRWQQGNVFSCSVMHEALHNHYTQKSLSLSPGKGGGGQGGGGQGGGGQGGGGQGGGGQGGGGQCPPCPAPELLGGPSVFLFPPKPKDTLMISRTPEVTCVVVDVSHEEPEVKFNWYVDGVEVHNAKTKPCEEQYGSTYRCVSVLTVLHQDWLNGKEYKCKVSNKALPAPIEKTISKAKGQPREPQVYTLPPSREEMTKNQVSLTCLVKGFYPSDIAVEWESNGQPENNYKTTPPVLDSDGSFFLYSKLTVDKSRWQQGNVFSCSVMHEALHNHYTQKSLSLSPGKGGGGQVQLQESGPGLVKPSETLSLTCTVSGGSISSSSYFWGWIRQPPGKCLEWIGNIYYSGSSNYNPSLKSRVTISVDTSKNQFSLKLSSVTAADTAVYYCARLPRGDRDAFDIWGQGTMVTVSSGGGGQGGGGQGGGGQEIVMTQSPSSLSASVGDRVTITCRASQGISNYLAWYQQKPGKVPKLLIYAASTLQSGVPSRFSGSGSGTDFTLTISSLQPEDFATYYCQQSYSTPFTFGCGTKVEIKSGGGGQEVQLVESGGGLVQPGGSLKLSCAASGFTFNKYAMNWVRQAPGKGMEWVARIRSKYNNYATYYADAVKDRFTISRDDSKNTLYLQMNNLKTEDTAVYYCVRAGNFGSSYISYFAYWGQGTLVTVSSGGGGQGGGGQGGGGQQTVVTQEPSLTVSPGGTVTITCGSSTGAVTSGNYPNWIQKKPGQAPRGLIGGTKFLAPGTPARFSGSLEGGKAALTLSGVQPEDEAEYYCVLYYSNRWVFGSGTKLTVL
EC50 GSU KO MSLN [pM]; TDCC, MSLN knocked out, CDH3 left [1]: 103 pM
EC50 GSU WT [pM]; TDCC, cells double positive for CDH3 and MSLN [1]: 0.013 pM
EC50 GSU KO CDH3 [pM]; TDCC, CDH3 knocked out, MSLN left [2]: 0.47 pM
EC50 GSU WT [pM]; TDCC, cells double positive for CDH3 and MSLN [2]: 0.013 pM
EC50 HCT116 KO MSLN [pM]; TDCC, MSLN knocked out, CDH3 left [3]: 1.08 pM
EC50 HCT116 WT [pM]; TDCC, cells double positive for CDH3 and MSLN [3]: 0.003 pM
EC50 HCT116 KO CDH3 [pM]; TDCC, CDH3 knocked out, MSLN left [4]: 1.76 pM
EC50 HCT116 WT [pM]; TDCC, cells double positive for CDH3 and MSLN [4]: 0.003 pM
